Assay results taken from the DeepSol protein solubility set.

Test: soluble on expression in E. coli; label from the status in PepcDB or PDB records

Sequence | soluble on expression in E. coli
MYEAIGHRVEDGVAEITIKLPRHRNALSVKAMQEVTDALNRAEEDDSVGAVMITGAEDAFCAGFYLREIPLDKGVAGVRDHFRIAALWWHQMIHKIIRVKRPVLAAINGVAAGGGLGISLASDMAICADSAKFVCAWHTIGIGNDTATSYSLARIVGMRRAMELMLTNRTLYPEEAKDWGLVSRVYPKDEFREVAWKVARELAAAPTHLQVMAKERFHAGWMQPVEECTEFEIQNVIASVTHPHFMPCLTRFLDGHRADRPQVELPAGV | soluble
MENAFKNKALYHQLVDLLQERIETCMIPHDKLPSERELTAQYGVSRTTVRLALQELENRGSIYRRHGKGTFVSDIKKEAADLAGAYSFTEQMKGLGRKPHTRILSFEKLEADKFICQHLNLSLGEAVFKLSRLRIADNEPLMVEDTYLPVKFFLSLTDQLLRSKPLYDLFSEDFKQTVRLADEELYASIASKEDAKLLMIPEGAPVLHLARQTYNMKNEIIEFTLSVARADQFHYQIRHIRNS | not soluble
MGHHHHHHSHDDVIDKTLNYTRRKSNDIVYIGSLSKDKGVDILLELVKTFTKNGNDTIIHIVGKGLLYEKIFERIGEINKRVIYYGPQPLKRALQIASRASLGVVLTRPSYESLTTDPMKPKVYLAAHTPVILPEYFEISSYVNRFKAGMVVGKLKPSYILSKVKVALEDSNTLLKGAERLAKS | not soluble
MGSDKIHHHHHHMKKNQKISVEQLEVGTFIRLPISWKDHPFLFSSFKIKDAAQIELIKGLGLKDVFFDPEKSDVEPVTSENASTQKPDEQALNALKEQMISQKSAKIDEQQKLKRDLKKTEQQFNRSVSMMRSMVSKISSRPLNAVSEAKDLISNMTTMLLNSDNLALHLMGDAKNDEHIYHHSLNVAMLCMLMAKELGWSREEVETIGIGGLFHDIGKLKVPSNILNKRVPLTTPEENFIKQHPLMSINFLKLADSFPDEAKPLIANHHEYLDGSGYPQGLKADKLDKLSQLIAVVNEYDNLCNGTNQAKGKPPSIALGLLYKNYKNKLNVEYISKLIKMLGIYPPGSIIELSSGQFAMVMSVNLQKLLCPNIVVYDQLVPKDLAPIISLQDEGLSIVRSLPAAALPEKIHKYLNPREQISLGIGQN | not soluble
MGSDKIHHHHHHMTNLGTAKNFWDATLYQDKHSFVWQYGEDLLQLLNPQPGEFILDLGCGTGQLTEKIAQSGAEVLGTDNAATMIEKARQNYPHLHFDVADARNFRVDKPLDAVFSNAMLHWVKEPEAAIASIHQALKSGGRFVAEFGGKGNIKYILEALYNALETLGIHNPQALNPWYFPSIGEYVNILEKQGFDVTYAALFNRPTTLAEGEFGMANWIQMFASAFLVGLTPDQQVQLIRKVEATLQDKLYHQESWTADYRRIRIVSIKAQ | not soluble
MGSDKIHHHHHHSDNAGRTDKQTATVHDSQKDTSSDSKSDNDKKDTKYKSADEITMDDLMSHDETPAEDFELIDNSDEIVIQKYIGKDPIMVIPDEINGKKVVSLGTYALANDKNIVAIKIGNNIKDLGEGVFGNCENLRYVVLGDSVKTIGCNPFLNTNIQEVTLNDGLQKIGEDDINNTVDAPSKNIGMDLKIPESVTEMHLRDFHLIVKAGSYAEQYAKEYAESNNLTYTVE | not soluble
MAELNTHVNVKEKIYAVRSVVPNKSNNEIVLVLQQFDFNVDKAVQAFVDGSAIQVLKEWNMTGKKNNKRKRSKSKQHQGNKDAKDKVERPEAGPLQPQPPQIQNGPMNGCEKDSSSTDSANEKPALIPREKKISILEEPSKALRGVTGPNIEKSVKDLQRCTVSLTRYRVMIKEEVDSSVKKIKAAFAELHNCIIDKEVSLMAEMDKVKEEAMEILTARQKKAEELKRLTDLASQMAEMQLAELRAEIKHFVSERKYDEELGKAARFSCDIEQLKAQIMLCGEITHPKNNYSSRTPCSSLLPLLNAHAATSGKQSNFSRKSSTHNKPSEGKAANPKMVSSLPSTADPSHQTMPANKQNGSSNQRRRFNPQYHNNRLNGPAKSQGSGNEAEPLGKGNSRHEHRRQPHNGFRPKNKGGAKNQEASLGMKTPEAPAHSEKPRRRQHAADTSEARPFRGSVGRVSQCNLCPTRIEVSTDAAVLSVPAVTLVA | soluble
SKQPDKQRKSQRRAPLHERHKQVRATLSADLREEYGQRNVRVNAGDTVEVLRGDFAGEEGEVINVDLDKAVIHVEDVTLEKTDGEEVPRPLDTSNVRVTDLDLEDEKREARLESEDDSA | soluble
MGSDKIHHHHHHMANGLQRLIRSLKLVARYGLIVMNDGLICLPIKQRQVVFESFNGKDVNDNPAAIYRELVATAPEYRTTAYFSVKPREFAALHKKYPQIQLVKRFTPRWVWLMARAEFWVLNSRLPNWWHQNRRTTVIQTWHGTPLKKLGADIEHVAIPGTTTAAYHQEFKTAASRWQYLIAPNQYSQTIFKSAFGFHHQFLSVGYPRNDRLYTTLPAEITDLKQQLLGSTKGPVVTYAPTWRDDMAVRPGVYQFDLPFDLAEFFQHVPANTQLIIRPHYLVKDAIDIHGFEERVHVLAETDITDLYLISDLLITDYSSVMFDFANLQRPQLFFAYDLAHYRDQLRGFYFDYEQEIPGPLVTTASAFYAQLDRWRQDGAFHDYQARQAAFYEKFCSWENGTASRQVVQVMLHGKDEIK | not soluble
MGHHHHHHSHMEHPLEMPICAFQLPDLTVYNEDFRSFIERDLIEQSMLVALEQAGRLNWWVSVDPTSQRLLPLATTGDGNCLLHAASLGMWGFHDRDLMLRKALYALMEKGVEKEALKRRWRWQQTQQNKESGLVYTEDEWQKEWNELIKLASSEPRMHLGTNGANCGGVESSEEPVYESLEEFHVFVLAHVLRRPIVVVADTMLRDSGGEAFAPIPFGGIYLPLEVPASQCHRSPLVLAYDQAHFSALVSMEQKENTKEQAVIPLTDSEYKLLPLHFAVDPGKGWEWGKDDSDNVRLASVILSLEVKLHLLHSYMNVKWIPLSS | soluble
MYIQILGSAAGGGFPQWNCNCVNCAGFRDGSLRAQARTQSSIALSDDGVNWVLCNASPDIRAQLQGFAPMQPGRALRDTGISAIVLMDSQIDHTTGLLSLREGCPHQVWCTDMVHEDLSTGFPLFEMLKHWNGGLNWNRIELQGSFVIPACPNLRFTPFPLRSAAPPYSPHRFDPHPGDNIGLLVEDTRTGGKLFYAPGLGKVDEALAEKMRDADCLLVDGTMWDDDEMQRRGVGTRTGREMGHLAQNGPGGMLDVLEGFPEQRKVLIHINNTNPILDEDSPERAELVRRNVEVAFDGMSIELLEHHHHHH | soluble
MRGSHHHHHHGSAERMLATIMFTDIVGSTQHAAALGDDRWRDLLDNHDTIVCHEIQRFGGREVNTAGDGFVATFTSPSAAIACADDIVDAVAALGIEVRIGIHAGEVEVRDASHGTDVAGVAVHIGARVCALAGPSEVLVSSTVRDIVAGSRHRFAERGEQELKGVPGRWRLCVLMRDDATRTR | soluble
MSLKLIGLLMLSYPLQAAPTDLSRYLETQLKEDAREALNSYLQQQGWSASEVDYQVWLSPAVTHLPPCQQAIRLQAGGQYRQPWGRRPYLAECTEPAWQLRARVEVTLMLPVWVTAQEIQKGQTIRTGDLVEKSLDISRLQRGFVPSSESLVGSKSNRNLRMGQLIGELDLQKAWAIREGEGVLIRAGLDGFSATTRGKALANGAIGDGIKVRNISSGKEIQAWVIEKGEVETRFEGHHHHHH | not soluble
SLEGGDTLEGSMAQLKKGLESGTVLIQFEQLYRKKPGLAITFAKLPQNLDKNRYKDVLPYDTTRVLLQGNEDYINASYVNMEIPAANLVNKYIATQGPLPHTCAQFWQVVWDQKLSLIVMLTTLTERGRTKCHQYWPDPPDVMNHGGFHIQCQSEDCTIAYVSREMLVTNTQTGEEHTVTHLQYVAWPDHGVPDDSSDFLEFVNYVRSLRVDSEPLLVHCSAGIGRTGVLVTMETAMCLTERNLPIYPLDIVRKMRDQRAMMVQTSSQYKFVCEAILRVYEEGLVQMLDPS | soluble
MSLTPDAQVATAQRDDQALISEGKDLYDVACITCHGVNLQGVEDRGPSLVGVGEGAVYFQVHSGRMPILRNEAQAERKAPRYTEAQTLAIAAYVAANGGGPGLVYNEDGTLAMEELRGENYDGQITSADVARGGDLFRLNCASCHNFTGRGGALSSGKYAPNLDAANEQEIYQAMLTGPQNMPKFSDRQLSADEKKDIIAFIKSTKEGHHHHHH | soluble
GPGSMTEYKKLCAILAQLREEVTSLSCAFEGGEGQDTVALHSLSTSIQKLVTNAQPRLLKILRKATETDPNRQIYNEAMCAAIKQLFDDFCELLSCLFGVPMEEMVLSEGKINFEDSPSISWTEDVHNNYLLHLAQTEAWKKRIATNIADLVLFEEETRTVYFAEERKARETLLQIKRNEKTNILHMLKEREAAKWEAEVRRRNDEHKGLMNASSFYGVQNIATVLLRIPEPFRKLLAGNMAQLVRALRTTPEDPNIRRIRCNNRRVMMDYSHVVFCGECETCRILVAAAEILWYIMGYRVEYSTAPTSSLRTVIENNPPILLPCGRYASEHAIAVIGFEEYSERFFTLHEPDPMQDSDEWMVWYATLEALLARLEDCLV | not soluble
MAKFTVGQDPVKGLTELKAYMEEQISKIKKATSEQEIDQLLVEVLNEYDDKMGSLSKIYKGGNEQVEQLKIDVRKLYEPLRDQFSYNHPQTLVGEFQTKLEEQHKRAEEEKRKLEKQREEQLKLEKQLEEEKQKLAKQSEVEEKPKLENQQEENITQALQKVDGIIQELTLKIDRVDQHQYKKAHDTANTLLQSLIAARDEYERDLRANEFSQELAGRKFKLACQDAVKIAKPVLEKDLGWGDYLKNLLKCLGNAVITVFTFGYQQGFFAYARPDSAKAVEKAEEDLGLRQAASSPK | not soluble
MGSDKIHHHHHHMRESVVKLNEYTLRIFSLNTIVVGSGAAGLNAVDRVFSFGQKDVALLTDNLKWGTSRNTGSDKQTYYKLTLAGNVPDSVYELAETLFNGGSMDGDIALVEAALSARAFFRLVELGVPFPHSRYGEYVGYKTDHDPKQRATSAGPLTSYYMCEKLLEEIRRKGIKIFEGYQVIGILTDRNEEKTIGLIALDLNNIDDPEKRYVLFNVKNIIYATGGPAGMFYFHSVYPPVHFGATGIAFEAGVMGKNLTEWQFGIASKKFRWNLSGTYQQVIPRYVSTDENGNDEREFLEEYFPDPSTMLNAIFLKGYQWPFDVRKIKNYGSSLIDILVFYETVIKGRRVWLDFTRNPSWGSKNGELDFSLLGKEAYEYLKNSGALFGRPIDRLEKMNRPAIEVYLQHGIDLRKEYLEIGVCAQHNNGGLHGNIWWESNLKHFFPVGEVNGSHGVYRPGGSALNSGQVGGVRAAQYIVENYSGDPLCEEEILEEAKDQILKKIELGESFVKKITGKSNVSSILKEISERSMRSMGIVRSLEEAGKGKNEALRDFNNLIEKVELSSIRQLPFAFRLYDVLLTQYVYLSAVENYIESGGKSRGSYIVHDPTGELPVPNLPEMFRYSLAGESFNKKIQRVRCKENRCEFFWDPVKEIPREDTWFETIWNSFMRREVFR | not soluble
MSDNNDRMYELEYPSPEVSGQTAGGPTLIVALQGYADAGHAVESSSSHLMDALDHRLIASFNNDELIDYRSRRPVVVIEHNEVTSMDELNLGLHVVRDNDNKPFLMLSGPEPDLRWGDFSNAVVDLVEKFGVENTICLYAAPMTVPHTRPTVVTAHGNSTDRLKDQVSLDTRMTVPGSASLMLEKLLKDKGKNVSGYTVHVPHYVSASPYPAATLKLLQSIADSADLNLPLLALERDAEKVHRQLMEQTEESSEIQRVVGALEQQYDSE | not soluble
MGSDKIHHHHHHMQVRTFKGPSAKTVLDMIKAEIGPEAVILSSRDCSGDGVTWCEMTVGVEREAAAAPRMGRDEPAAGDQTPPAGWDEWHREWDEIKGHIMALMKPALRLDELAPRQRVALEYLEREGVEDNVILALYRRLRGAPSLSVLEPLSAVVPVKGWGGADWPQKMQIVCGPSGVGKTSAVVRMALALRRQNAGVRICVLNADSQRGSGRMVLRHYAELCGMGYHEISGPADAAALLGELDGYDKILVDTPVPGRGATLRSLLEETGLDVLEQQVPAAVQLVMSPLYGDAQISFFLRQYECGLPCGLVWTKLDEACNFGALINVPAASGLPVTALSFGSGLKNSLASARGTMIWRLVFKKQLPGDVAAR | not soluble
